B1: SEQ_ID_#953 (nucleic acid, listed as Homo sapiens)
DNA: TGGTTTCGGTCTATTTATCCAGGGACACCACAGCTTTGGAGGCAGCAAACATGCCCATTTGTTACTATTTGCAAAGATGGTGTACACCAAACATGGGCTTTCCGTAAACAAATTAAAAAGTAATAAAGTGGCCCCATCTGCATACTAGAGCAATGTGCTTCCATTTTAATGAAGCTTGCTATAGAAAAGCCATTTGATGGCTTGTCAAAAGCGTGAATGCCTGTGGCTGAACGTGGAAGTATGCTGTGGTGCAAAGACGTAGTCCTTTCTTCCTCCAGTATGCACGGGGCACCTGCCACACCTGCTGCAAGGACCTGGTCCTGCCCCTAGGCCATCTGCTACGCCAAGGAGACCCAGGTCTTTCCAGTTTCTACCAGGCCCTTTAATGCTCTATCCTGTGGCCCACCCAAGGTTGCAGAGCTGGTAAGCTCTGGAGGTTGAACACAGGCAGTCTGGGCAGAGTGCCTGCTCACTGTCCTGCCTCTCCT
B2: SEQ_ID_#978 (nucleic acid, listed as Homo sapiens)
DNA: GTATATGTTAAAAAAAGAGAAGGTCGCATTATGGACAGACTTCGTGAATGGGAATTTGCTTAGAATTGTGAGTAGTTCTGAATTAGAAAAGTATGTGAAGGAAAGGCAGCTGTAAACGTATTGTGCCCTGGAGAGTTGTACACATGTTGAAATGTAATCTGGGCTTACCTGATCCATTTGGAGTGGATGTCACTGCCGAGTCTGTTCTCACATGGAACCATGTGTGTGGGGTTGCCAGCCTCACAGATACAATCAATCCTATTCCCCTCTGACATAAGGAACTCCTCTGGAGTGGCAGAGTCTTATCACAGAAGGCAGCCACCATTTCACCAAAACAAAAGTTCACGGCATTCAATTCCTTTTTCCTTTAGCTATTTATATATGCAGTACTCTCAGTCATATGCAGAAATACTTTTTTTTTTTAATTAATAGTTACAGGCTTGTTGGTCCAGTGGGATTTGGGTAGGGGGAGAAAGATACCTTCTAAAATGGATCAATAGAACCAAAATAATACAGCATGTTCTATAACCACAAGGAAATCAAATGATCCTGTCATGATTCCAGTTAGTCATAACTATGTTAGCAGTGCTAAATGCATTTTAGAAATGGTGACTTCTGTGGTTTTCCTAGCATTTGTCTCTAACAAATGGTGAAATAATTACTCATGGCCCTCTCTGCCATTGTCTTTCATTTTTTCACAGTGAAATTAGACCCCTTTACTTCACCATTCTGCCACTGCAAATTAAGTATAAAGAAAATAGCAAGAGTGTCCACACCAGTAGACAGTAAGCTTCTCTACCTGTAAGTGATGAAATCATAGCTAATGCACTTGCCATGGAGTTTTCAAGATGATTGGTGTCAGACAGTTTTCACTTTGTTTAAAAAGTGTTGGTGGCCTTTTGTGGTGGTGTTACAATCCTCTGGGGGCTTAGGAGGATGTTGATGCAACTTTTAGAAGCTTTTAATTTCAAAAACAACTCAAAAATCTGAAGGACAGTCATAGCTGCCACTCAGCCCCAGTTAGTCAAACCCCAGTGACCTTTGCCCCTGGTTGCCAAGGGCTTTGCAACATCAAGCAGGGAAATAAGGATCTGTCTGTTTAGTGGATACCGTGTATCCTTTAATAGACCAGGTAACAGTTCGTGTTAGTTTAGACTATTGTTTTGTACTGTACTTTCTTGGGTGGCAGAGGAAAGAAAAGTAAAACATT
B3: SEQ_ID_#948 (nucleic acid, listed as Homo sapiens)
DNA: AGAGGCGGGCTTCCCTCGGAAAACGGAGGGTTGAAACCCAGAAAGCTCCTCGGAGCCCTTCTGGGGTTCGGGCGATCTGGGCAGAGAACTCTCGGGTGGCAAGGAATTAAGGGCAGCGCGAACGACGGTCTCTAGACAAGTATGAAGCCTCCCCTGAGTGTGTCCGGCGCTCAGGGGGTGGACCGGGGTGTTGGTTTCAAGGAGGGGGCCATCGTTTGCACCACGGCGTCCAGAAATACTCATCCTTTGCCCTTCGGGGAGGCAACAGAGCAGCCAACTGACTGTTCTGGCCAAAGAGACTGGAGATCCAGTATCAGCAAGCTACTTTCTTGGTAAACCTCCATTTCCCAATGCTCATCTTTGTCCTCTACCCCCACCCATCCCAAGGCAAATGATGAAAACATCTATTGGATCCAGCCTTTGCTATCTTCTCCATGCTGCTCATAGTGGGTCTAGCAATGTCCCATTCTCGGTAATGTTTGGTAGGTCTAAAACATCCTCACGAAATGTTCCCCAAATGTTCTGCTCCAGCTGAGCAACTAATAACAATGGGAAGATGCAGAAAAAAAATGCATGGAGCATAATGTTAGTTTTGGGACTCGTCAGTGGCAACGTTTTAGAGATGCCATGAAGAATTCCTGGTAATAATCCTTCTTCCTACAGCATTTAGCAATGAATACTATGGGATTATGGCTAAAAGATGGTCAAGACTGCCTCAGCCATTAGGATCAGAATTCTAAGTTCCAAAGAAGAGCAAACTCAAGAGGATTTCCTCAGGCCTCTGACTATAGATGCTGCCTGGGGAGAACAGGTGCTACACTCAAAACATTCTCATTTTATTTATATCCTCCCTGAACTAGTACCCAACTCCATAACCCCAGACTCAAATAACAGAAATAAAAGCCATCTCACTGATTATAAGCTCTCTAGTTATTACAAAAATAAATAAGCATCAATCAACCAACAGGCATCAGAATGAGAAAATCACTGATTTGAGACATTCAGGCTGCAGGAAAAGAACACTTTTTGTTAATATGTAACTATATCTTCAGTAGTACAGAAAAATGAGAAGAACGAGAGTTCTTACCTGGATTTGCGGCTCACTTAAAGTAGAGCACCTGAGATGCTGGGAAATCATAAAGATAAATAACCAATCTAACAAATTCCTGCCATGAGACCAAAGTGATCCTTGACTACTCTATTAGTAAGCGACTCTGAGCCAAGAGTACGAACCTGTAAGTGGAGTGGTGGTTGGCCCATTAGAAATCTCTGAAAGATCTAAACATGACAGTTACCTTCCTACTGGACTCATACTTCTCAATTCCCTCTCCTAAAAGAATACTTTTGGGCTGGCCCCAGTGGCTCACACCTGTAATCTCGGCACTTTGGGAAGCCAAGGTGGGAGGATTGCTTGAGGACAAGAGTTTGAGACCAGCTCGGTGGAAACATAGCACCATCCATGTCTCTACC
B4: SERPINB1 (nucleic acid, listed as Homo sapiens)
DNA: GCTCGGAGCCCGGAGCGTGCCTCGGCGGCCTGTCGGTTTTCACCATGGAGCAGCTGAGCTCAGCAAACACCCGCTTCGCCTTGGACCTGTTCCTGGCGTTGAGTGAGAACAATCCGGCTGGAAACATCTTCATCTCTCCCTTCAGCATTTCATCTGCTATGGCCATGGTTTTTCTGGGGACCAGAGGTAACACGGCAGCACAGCTGTCCAAGACTTTCCATTTCAACACGGTTGAAGAGGTTCATTCAAGATTCCAGAGTCTGAATGCTGATATCAACAAACGTGGAGCGTCTTATATTCTGAAACTTGCTAATAGATTATATGGAGAGAAAACTTACAATTTCCTTCCTGAGTTCTTGGTTTCGACTCAGAAAACATATGGTGCTGACCTGGCCAGTGTGGATTTTCAGCATGCCTCTGAAGATGCAAGGAAGACCATAAACCAGTGGGTCAAAGGACAGACAGAAGGAAAAATTCCGGAACTGTTGGCTTCGGGCATGGTTGATAACATGACCAAACTTGTGCTAGTAAATGCCATCTATTTCAAGGGAAACTGGAAGGATAAATTCATGAAAGAAGCCACGACGAATGCACCATTCAGATTGAATAAGAAAGACAGAAAAACTGTGAAAATGATGTATCAGAAGAAAAAATTTGCATATGGCTACATCGAGGACCTTAAGTGCCGTGTGCTGGAACTGCCTTACCAAGGCGAGGAGCTCAGCATGGTCATCCTGCTGCCGGATGACATTGAGGACGAGTCCACGGGCCTGAAGAAGATTGAGGAACAGTTGACTTTGGAAAAGTTGCATGAGTGGACTAAACCTGAGAATCTCGATTTCATTGAAGTTAATGTCAGCTTGCCCAGGTTCAAACTGGAAGAGAGTTACACTCTCAACTCCGACCTCGCCCGCCTAGGTGTGCAGGATCTCTTTAACAGTAGCAAGGCTGATCTGTCTGGCATGTCAGGAGCCAGAGATATTTTTATATCAAAAATTGTCCACAAGTCATTTGTGGAAGTGAATGAAGAGGGAACAGAGGCGGCAGCTGCCACAGCAGGCATCGCAACTTTCTGCATGTTGATGCCCGAAGAAAATTTCACTGCCGACCATCCATTCCTTTTCTTTATTCGGCATAATTCCTCAGGTAGCATCCTATTCTTGGGGAGATTTTCTTCCCCTTAGAAGAAAGAGACTGTAGCAATACAAAAATCAAGCTTAGTGCTTTATTACCTGAGTTTTTAATAGAGCCAATATGTCTTATATCTTTACCAATAAAACCACTGTCCAGAAAAAAAAAAAAAAAAAAAA

These molecules were tested on EE transcriptome (assay: Genome-wide microarray transcript profiling of esophageal biopsies, EE patients vs normal individuals (EE transcriptome)). Conditions: transcript level in esophageal biopsies of EE patients compared to normal individuals (NL); Affymetrix Human Genome U133 plus 2; p<0.01; >1 up-regulated, <1 down-regulated.
Protocol: Esophageal tissue obtained from patients previously diagnosed with EE was analyzed. Diagnosis was based on analysis of excised tissue from endoscopic biopsy. Tissues from patients with EE, as well as patients not having EE (controls) were subjected to genome-wide microarray transcript profiling (Affymetrix GeneChip). All work was performed at the Core facility at Children's Hospital Medical Center (Cincinnati Ohio).
Briefly, RNA quality was first assessed using the Agilent bioanaiyzer (Agilent Technologies, Palo Alto Calif.). Only mRNA having a ratio of 28S/18S between 1.3 and 2 were subsequently used. RNA was converted to cDNA with Superscript choice for cDNA synthesis (Invitrogen, Carlsbad Calif.) and subsequently converted to biotinylated cRNA with Enzo High Yield RNA Transcript labeling kit (Enzo Diagnostics, Farmingdale N.Y.). After hybridization to the GeneChip (Affymetrix, Santa Clara Calif.), the chips were automatically washed and stained with streptavidin-phycoerythrin using a fluidics system. The chips were scanned with a Hewlett Packard GeneArray Scanner. Over 30,000 unique genes were screened.
Levels of gene transcripts were determined from data image files, using algorithms in the Microarray Analysis Suite software (Affymetrix). Levels from chip to chip were compared by global scaling. Each gene was typically represented by a probe set of 16 to 20 probe pairs. Each probe pair consisted of a perfect match oligonucleotide and a mismatch oligonucleotide that contained a one base mismatch at a central position. Two measures of gene expression were used, absolute call and average difference. Absolute call is a qualitative measure in which each gene is assigned a call of present, marginal or absent, based on the hybridization of the RNA to the probe set. Average difference is a quantitative measure of the level of gene expression, calculated by taking the difference between […] of every probe pair and averaging the differences over the entire probe set. Data were normalized and an EE transcriptome gene list was created with results having p<0.01 (Welch t-test with or without false rate discovery) and ≥1.5-fold change.
For evaluation of EE using clinical and/or physical assessment, biopsy tissues (obtained from the distal esophagus during routine endoscopy) were submerged in formalin for routine pathological analysis with hematoxylin and eosin staining. Diagnosis was established based on the maximum eosinophil count per high power field (hpf) and basal layer expansion according to method known in the art (e.g., established criteria in Rothenberg et al., Pathogenesis and clinical features of eosinophilic esophagitis. J Allergy Clin Immunol 108 (2001) 891; Attwood et al., Esophageal eosinophilia with dysphagia. A distinct clinicopathologic syndrome. Dig Dis Sci 38 (1993)109; Fox et al., Eosinophilic esophagitis: its not just kid's stuff. Gastrointest Endosc 56 (2002) 26, each of which is expressly incorporated by reference herein in its entirety. Normal individuals (NL), n=13, served as a control and were defined as having 0 eosinophils/hpf and no basal layer expansion. Individuals with EE (n=76) were defined as having >24 eosinophils/hpf and extensive basal layer hyperplasia (expansion to about >⅓ of epithelium).
The data were analyzed by cluster analysis and ordered (standard correlation (A) and distance (B)) using Genespring software. […] Each column represented a separate individual and each line a gene. RNA from each patient was subjected to chip analysis using Affymetrix Human Genome U133 GeneChip plus 2.

Molecule | Fold Change
B1 | 0.627
B2 | 0.62
B3 | 0.629
B4 | 0.62
